Source: USRE49099 (Bayer, dated 2022)

What was measured:
[1] = target: T1, human activated protein C (human, UniProt P04070 43-197; P04070 212-461); experiment: SPR (Biacore), 1:1 binding model
T1 construct: also called human aPC; human APC

[2] = target: T2, cyno activated protein C (cyno (monkey)); experiment: SPR (Biacore), 1:1 binding model
T2 construct: also called cyno aPC; cyno APC

[3] = target: T1, human activated protein C; experiment: SPR (Biacore)
[4] = target: T1, human activated protein C; experiment: ELISA, coated antigen
[5] = target: T2, cyno activated protein C; experiment: ELISA, coated antigen
[6] = target: T3, human Protein C (human, UniProt P04070 43-461); experiment: ELISA, coated antigen
T3 construct: Zymogen used as negative control in the ELISA; also called human PC; hPC

Binder | Kd [1] [nM] | koff [1] [s⁻¹] | kon [1] [M⁻¹ s⁻¹] | Kd [2] [nM] | koff [2] [s⁻¹] | kon [2] [M⁻¹ s⁻¹] | Kd [3] [nM] | EC50 [4] [nM] | EC50 [5] [nM] | binding result [6]
Hu1573-1 (antibody, V domains shown, Humanized IgG, human gamma 1 / kappa constant regions by vectors pCP-hCg1 and pCP-hck; also called H1573VH.1 + H1573Vk.2C) VH: EVQLVESGGGLVQPGGSLRLSCAASGFTFSNYYLNWVRQAPGKGLEWVGDIRLKSNNYEKHYAESVKGRFTISRDDSKNSLYLQMNSLKTEDTAVYYCAREGDYFDYWGQGTTVTVSS VL: DIVLTQTPLSLSVTPGQPASISCRASESVDSFGATFMHWYLQKPGQPPQLLIYLASNLESGVPDRFSGSGSRTDFTLKISRVEAEDVGVYYCQQNNEDPYTFGQGTKLEIKR | 3.8 | 0.00554 | 1.46e+06 | 16.7 | 0.00402 | 240000 | < 5 | 0.369 | 0.865 | no binding (tested: 20 nM)
Hu1573-5 (antibody, V domains shown, Humanized IgG, human gamma 1 / kappa constant regions by vectors pCP-hCg1 and pCP-hck; also called H1573VH.1B + H1573Vk.2B) VH: EVQLVESGGGLVQPGGSLRLSCAASGFTFSNYYLNWVRQAPGKGLEWVGDIRLKSNNYEKHYAESVKGRFTISRDDSKNSVYLQMNSLKTEDTAVYYCIREGDYFDYWGQGTTVTVSS VL: DIVMTQTPLSLSVTPGQPASISCRASESVDSFGATFMHWYLQKPGQPPQLLIYLASNLESGVPDRFSGSGSRTDFTLKISRVEAEDVGVYYCQQNNEDPYTFGQGTKLEIKR | 4.16 | 0.0064 | 1.54e+06 | 14.5 | 0.00293 | 202000 | < 5 | 0.552 | 1.03 | no binding (tested: 20 nM)
Hu1573-2 (antibody, V domains shown, Humanized IgG, human gamma 1 / kappa constant regions by vectors pCP-hCg1 and pCP-hck; also called H1573VH.1A + H1573Vk.2C) VH: EVQLVESGGGLVQPGGSLRLSCAASGFTFSNYYLNWVRQAPGKGLEWVGDIRLKSNNYEKHYAESVKGRFTISRDDSKNSLYLQMNSLKTEDTAVYYCIREGDYFDYWGQGTTVTVSS VL: DIVLTQTPLSLSVTPGQPASISCRASESVDSFGATFMHWYLQKPGQPPQLLIYLASNLESGVPDRFSGSGSRTDFTLKISRVEAEDVGVYYCQQNNEDPYTFGQGTKLEIKR | 4.61 | 0.00624 | 1.35e+06 | 16.4 | 0.00384 | 235000 | < 5 | 0.265 | 0.774 | no binding (tested: 20 nM)

Results, then the binder that gave them:

Kd [1] [nM] | koff [1] [s⁻¹] | kon [1] [M⁻¹ s⁻¹] | Kd [2] [nM] | koff [2] [s⁻¹] | kon [2] [M⁻¹ s⁻¹] | Kd [3] [nM] | EC50 [4] [nM] | EC50 [5] [nM] | binding result [6] | Binder
4.03 | 0.006 | 1.49e+06 | 12.3 | 0.00447 | 363000 | < 5 | 0.697 | 0.713 | no binding (tested: 20 nM) | Hu1573-8 (antibody, V domains shown, Humanized IgG, human gamma 1 / kappa constant regions by vectors pCP-hCg1 and pCP-hck; also called H1573VH.1C + H1573Vk.2B) VH: EVQLVESGGGLVQPGGSLRLSCAASGFTFSNYYLNWVRQAPGKGLEWVADIRLKSNNYEKHYAESVKGRFTISRDDSKNSLYLQMNSLKTEDTAVYYCIREGDYFDYWGQGTTVTVSS VL: DIVMTQTPLSLSVTPGQPASISCRASESVDSFGATFMHWYLQKPGQPPQLLIYLASNLESGVPDRFSGSGSRTDFTLKISRVEAEDVGVYYCQQNNEDPYTFGQGTKLEIKR
4.38 | 0.00636 | 1.45e+06 | 11 | 0.00479 | 434000 | < 5 | 0.575 | 0.68 | no binding (tested: 20 nM) | Hu1573-10 (antibody, V domains shown, Humanized IgG, human gamma 1 / kappa constant regions by vectors pCP-hCg1 and pCP-hck; also called H1573VH.1D + H1573Vk.2A) VH: EVQLVESGGGLVQPGGSLRLSCAASGFTFSNYYLNWVRQAPGKGLEWVGDIRLKSNNYEKHYAESVKGRFTISRDDSKSSLYLQMNSLKTEDTAVYYCIREGDYFDYWGQGTTVTVSS VL: DIVLTQTPLSLSVTPGQPASISCRASESVDSFGATFMHWYLQKPGQPPQLLIYLASNLESGVPDRFSGSGSGTDFTLKISRVEAEDVGVYYCQQNNEDPYTFGQGTKLEIKR
